According to patent publication US20250092426, “CAS ENDONUCLEASES AND RELATED METHODS” (Flagship Pioneering Innovations VII, LLC, published 2025):

Biological target: T1, CasEnd-9 (synthetic construct)
T1 chain: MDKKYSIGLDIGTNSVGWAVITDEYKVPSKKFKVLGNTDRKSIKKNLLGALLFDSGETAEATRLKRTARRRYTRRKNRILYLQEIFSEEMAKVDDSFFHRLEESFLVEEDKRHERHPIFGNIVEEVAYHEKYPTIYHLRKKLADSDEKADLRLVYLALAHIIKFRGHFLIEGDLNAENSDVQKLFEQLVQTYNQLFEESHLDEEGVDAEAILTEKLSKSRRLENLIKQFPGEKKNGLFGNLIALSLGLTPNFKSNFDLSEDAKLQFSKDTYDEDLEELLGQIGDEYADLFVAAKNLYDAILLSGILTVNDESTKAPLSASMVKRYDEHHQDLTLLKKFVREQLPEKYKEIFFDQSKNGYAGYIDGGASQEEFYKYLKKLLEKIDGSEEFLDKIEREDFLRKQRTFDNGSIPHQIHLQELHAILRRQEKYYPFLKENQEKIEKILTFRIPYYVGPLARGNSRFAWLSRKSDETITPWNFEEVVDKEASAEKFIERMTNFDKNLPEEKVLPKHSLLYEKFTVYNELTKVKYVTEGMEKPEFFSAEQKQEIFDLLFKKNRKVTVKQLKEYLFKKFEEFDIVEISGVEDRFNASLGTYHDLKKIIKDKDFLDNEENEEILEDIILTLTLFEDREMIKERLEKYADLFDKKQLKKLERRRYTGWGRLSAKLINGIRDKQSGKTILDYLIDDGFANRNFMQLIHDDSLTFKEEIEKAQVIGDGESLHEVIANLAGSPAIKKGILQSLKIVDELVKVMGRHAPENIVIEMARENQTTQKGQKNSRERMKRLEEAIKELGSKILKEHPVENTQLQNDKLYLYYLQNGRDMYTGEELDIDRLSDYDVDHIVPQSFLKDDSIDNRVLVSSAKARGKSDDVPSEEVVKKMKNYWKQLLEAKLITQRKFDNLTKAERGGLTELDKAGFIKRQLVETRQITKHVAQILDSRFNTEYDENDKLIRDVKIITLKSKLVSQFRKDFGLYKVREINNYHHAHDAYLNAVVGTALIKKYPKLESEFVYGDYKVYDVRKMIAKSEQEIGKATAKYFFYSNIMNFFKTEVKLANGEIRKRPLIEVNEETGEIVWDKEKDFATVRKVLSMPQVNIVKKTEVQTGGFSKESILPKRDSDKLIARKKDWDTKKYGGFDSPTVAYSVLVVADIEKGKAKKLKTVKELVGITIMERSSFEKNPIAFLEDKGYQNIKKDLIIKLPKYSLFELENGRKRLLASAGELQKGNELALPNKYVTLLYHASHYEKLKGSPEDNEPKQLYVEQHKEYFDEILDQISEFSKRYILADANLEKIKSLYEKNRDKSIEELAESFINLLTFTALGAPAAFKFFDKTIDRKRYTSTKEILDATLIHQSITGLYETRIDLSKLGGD
Test: cell_activity; +++; HEK293T; PAM not stated
Method in brief: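 BFP-to-GFP conversion via reverse transcriptase fusion with each Cas endonuclease plus template RNA: 200 ng of each plasmid nucleofected into 250,000 BFP-expressing HEK293T cells (program DS-150). Percent GFP+ cells by flow cytometry at day 4 measured editing.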

B1: BFP-to-GFP template RNA ; BFP reporter protospacer (ssRNA ; dsDNA)
RNA: GCCGAAGCACUGCACGCCGUGUUUUAGAGCUAGAAAUAGCAAGUUAAAAUAAGGCUAGUCCGUUAUCAACUUGAAAAAGUGGCACCGAGUCGGUGCACCCUGACGUACGGCGUGCAGUGCUU
DNA 1: GCCGAAGCACTGCACGCCGT
DNA 2: ACGGCGTGCAGTGCTTCGGC
In the case of B1, the activity is reported as ≥ 100 % of reference.
